In doi:10.1101/2021.05.24.445485 one finds Kd data, which are given here for 1 molecule.

This experiment addresses Escherichia coli MRE600 30S ribosomal subunits (E. coli). The experiment can be described thus: ITC. (In general: In ITC the heat of successive injections is recorded.)

B1: initiation factor IF1 (natural protein)
chain: MAKEDNIEMQGTVLETLPNTMFRVELENGHVVTAHISGKMRKNYIRILTGDKVTVELTPYDLSKGRIVFRSR
For the molecule B1, the Kd (usually the equilibrium constant for the complex coming apart) was 806 nM.
